Measured values taken from publication PMC12265263, “H2A.X N-terminal acetylation is a newly identified NAA40-mediated modification that is responsive to UV irradiation” (Epigenetics & Chromatin, 2025).

What was measured:
human NAA40 E139Q = test: Fluorescence-based in vitro Nt-acetylation assay, N-terminal 17-mer peptides, catalytically inactive NAA40 E139Q; format: biochemical; conditions: 17-mer peptide 15 μM, 10 μM acetyl-CoA, 0.1 μM hNAA40 E139Q, 25 mM HEPES pH 7.5, 5 min, triplicate, repeated two times, Fig. 1E
Experimental: (§1) hNAA40 (NCBI: NM_024771.4) WT and E139Q were cloned in pGEX-5 × 1 vector. The plasmids were transformed in BL21 (DE3) codon plus RIL pACYC E. coli cells, generously provided by Till Bartke (Institute of Functional Epigenetics, Helmholtz Munich). The transformed bacteria were grown in 40 mL Lysogeny Broth (LB) medium complemented with 100 μg/mL Ampicillin (Sigma A9518) and 25 μg/mL Chloramphenicol (Sigma C0378-5G) for 16 h at 37 °C. Final culture volume was adjusted to 400 mL with LB and the growth was resumed for 2 h. Protein expression was initiated by adding 0.1 mM isopropyl β-D-1-thiogalactopyranoside (IPTG) (Thermo Fisher Scientific 15529019) and incubating further for 4 h at 37 °C. Bacteria were pelleted and resuspended in ice cold PBS/1% Triton-X100 supplemented with protease inhibitors. Cells were lysed by small probe sonication (amplitude 30%, 3 × 45 s on ice). Lysate bacteria were pelleted, and the supernatant was incubated with Glutathione agarose beads (Cytiva 17075601) for 1 h. Then, washing steps were made with ice cold PBS/1% Triton-X100 and ice-cold PBS. The beads with the recombinant GST-NAA40 WT or E139Q were stored at − 20 °C in 80% PBS/20% glycerol. To obtain the GST tagged hNAA40, the buffer 50 mM Tris HCL pH 8, 20 mM reduced Glutathione-20% glycerol was used to elute the GST-NAA40. To obtain the untagged version of hNAA40, hNAA40 was enzymatically cut by Factor Xa (NEB P8010S) from the beads and was dialyzed in 50 mM Tris–HCL pH 7.5, 100 mM NaCl, 25% Glycerol. The recombinant proteins were confirmed by SDS-PAGE and the concentrations were determined using the BIO-RAD protein assay dye reagent (BIO-RAD 5000006) and Nanodrop 1000.
An adaptation of the previous described fluorescence assay was used to study the kinetics of hNAA40 with the histone substrates H2A.X, H2A, and H4. […] The fluorescence was monitored with Tecan Spark multimode reader with excitation 410 ± 20 nm and emission 475 ± 20 nm, and the duration of the reaction was 5 min. […]

human NAA40 WT = target: T1, human NAA40 WT (Homo sapiens, UniProt Q86UY6); test: Fluorescence-based in vitro Nt-acetylation assay, N-terminal 17-mer peptides, wild-type NAA40; format: biochemical; conditions: for Nt-acetylation by recombinant wild type NAA40: 17-mer peptide 15 μM, 0.1 μM hNAA40, 15 μM Thioglo4, 25 mM HEPES pH 7.5, 150 mM NaCl, 0.01% Triton X100, 5 min, fluorescence ex 410/em 475 nm, ΔRFU/min, triplicate, repeated two times, Fig. 1E
T1 construct: GST (N); made in house; host or cells: E. coli BL21 (DE3) codon plus RIL
Experimental: as §1
An adaptation of the previous described fluorescence assay was used to study the kinetics of hNAA40 with the histone substrates H2A.X, H2A, and H4. Specifically, the full-length histone proteins H2A.X (TEBU BIO 23615-0307), H2A, H4, and H2B, and 17-mer peptides corresponding to the N-terminal end of H4, H2A.X, H2A.J, SMARCD2 were tested with WT or E139Q hNAA40. The peptides used in this study were synthesized by BIOSYNTAN GmbH, with > 95% purity. Final substrate concentration was 15μM for the rate comparison between WT and E139Q hNAA40 (ΔRFU/min), and for the Km determination the concentration ranged from 0.1 μM to 25 μM (1:2 dilutions). The reactions were in triplicate, repeated two times and contained 15 μM Thioglo4 (Merck 595504), 10 μM Acetyl coenzyme A lithium salt (Santa Cruz sc-214465), 25 mM HEPES pH 7.5, 150 mM NaCl, 0.01% Triton X100), 0.1μM hNAA40 in a final volume of 40 μl. The reaction was initiated with the addition of the substrate. The fluorescence was monitored with Tecan Spark multimode reader with excitation 410 ± 20 nm and emission 475 ± 20 nm, and the duration of the reaction was 5 min. We generated the standard curve y = 685.2*X-92.53 using 0–10 μM 1:2 dilutions of Coenzyme A sodium salt hydrate (Merck C13144) and 25 mM HEPES pH 7.5, 150 mM NaCl, 0.01% Triton X100. GraphPad Prism 8 was used for the enzyme kinetics analyses.

Nt-acetylation by recombinant wild type NAA40 (human NAA40 WT; 10 μM acetyl-CoA)	Substance	Nt-acetylation by catalytically inactive NAA40 (E139Q) (human NAA40 E139Q)	Michaelis constant (Km), stated as affinity (inverse measure) (human NAA40 WT; 17-mer peptides 0.1 μM to 25 μM (1:2 dilutions), 10 μM acetyl-CoA, 0.1 μM hNAA40, pH 7.5, Fig. 1F)	catalytic efficiency (kcat/Km) (human NAA40 WT; 17-mer peptides, Fig. 1H)
Nt-acetylated by the wild-type	H2A.J peptide: 17 amino acid long peptide corresponding to the N-terminal end of H2A.J (MSGRGKQGGKVRAKAKS; UniProt Q9BTM1 1-17, looked up, fragment)	not the catalytically inactive human NAA40		
Nt-acetylated by the wild-type	H2A.X peptide: 17 amino acid long peptide corresponding to the N-terminal end of H2A.X (SGRGKTGGKARAKAKSR; UniProt P16104 2-18, looked up, fragment)	not the catalytically inactive human NAA40		

Substance	Nt-acetylation by recombinant wild type NAA40 (human NAA40 WT; 10 μM acetyl-CoA)	Nt-acetylation by catalytically inactive NAA40 (E139Q) (human NAA40 E139Q)	Michaelis constant (Km), stated as affinity (inverse measure) (human NAA40 WT; 17-mer peptides 0.1 μM to 25 μM (1:2 dilutions), 10 μM acetyl-CoA, 0.1 μM hNAA40, pH 7.5, Fig. 1F)	catalytic efficiency (kcat/Km) (human NAA40 WT; 17-mer peptides, Fig. 1H)
SMARCD2 peptide: 17 amino acid long peptide corresponding to the N-terminal end of SMARCD2 (MSGRGAGGFPLPPLSPG; UniProt Q92925 1-17, looked up, fragment)	Nt-acetylated by the wild-type	not the catalytically inactive human NAA40	significantly lower	significantly lower than histones
